Numbering of substitutions follows the chain as printed.
T1: hANGPTL3(17-460)-His (human, UniProt Q9Y5C1 17-460)
T1 construct: Bought protein (R&D Systems); also called full-length mature human ANGPTL3 with a C-terminal decahistidine tag; Human ANGPTL3 (17-460)-His
T1 sequence: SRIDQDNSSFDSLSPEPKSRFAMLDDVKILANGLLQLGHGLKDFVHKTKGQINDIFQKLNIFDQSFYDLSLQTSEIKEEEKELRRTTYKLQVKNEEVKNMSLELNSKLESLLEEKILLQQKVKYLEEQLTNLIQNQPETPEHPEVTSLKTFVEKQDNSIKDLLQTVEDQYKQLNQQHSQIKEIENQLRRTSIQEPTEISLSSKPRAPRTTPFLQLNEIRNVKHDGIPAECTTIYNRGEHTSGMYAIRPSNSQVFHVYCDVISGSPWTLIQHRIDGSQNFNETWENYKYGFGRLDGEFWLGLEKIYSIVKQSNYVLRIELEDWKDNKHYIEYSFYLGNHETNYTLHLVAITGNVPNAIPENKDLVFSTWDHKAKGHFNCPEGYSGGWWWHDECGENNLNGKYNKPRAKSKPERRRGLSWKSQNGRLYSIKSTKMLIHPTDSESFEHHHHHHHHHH

T2: hANGPTL3(17-169)-mFc (human)
T2 construct: also called N-terminal coiled-coil domain of hANGPTL3 with a C-terminal mouse Fc fusion
T2 chain: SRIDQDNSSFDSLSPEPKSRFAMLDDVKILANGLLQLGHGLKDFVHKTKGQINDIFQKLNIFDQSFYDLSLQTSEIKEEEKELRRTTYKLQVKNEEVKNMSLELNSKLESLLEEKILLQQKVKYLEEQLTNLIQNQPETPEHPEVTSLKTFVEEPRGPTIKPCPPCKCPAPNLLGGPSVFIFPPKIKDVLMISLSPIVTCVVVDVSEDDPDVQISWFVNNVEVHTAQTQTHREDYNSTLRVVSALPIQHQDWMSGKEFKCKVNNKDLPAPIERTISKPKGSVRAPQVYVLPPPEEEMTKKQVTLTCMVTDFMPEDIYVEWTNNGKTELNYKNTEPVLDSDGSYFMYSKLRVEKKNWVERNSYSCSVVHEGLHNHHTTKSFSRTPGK

T3: bovine LPL (bovine, UniProt P11151 29-478, limits assumed)
T3 sequence (looked up): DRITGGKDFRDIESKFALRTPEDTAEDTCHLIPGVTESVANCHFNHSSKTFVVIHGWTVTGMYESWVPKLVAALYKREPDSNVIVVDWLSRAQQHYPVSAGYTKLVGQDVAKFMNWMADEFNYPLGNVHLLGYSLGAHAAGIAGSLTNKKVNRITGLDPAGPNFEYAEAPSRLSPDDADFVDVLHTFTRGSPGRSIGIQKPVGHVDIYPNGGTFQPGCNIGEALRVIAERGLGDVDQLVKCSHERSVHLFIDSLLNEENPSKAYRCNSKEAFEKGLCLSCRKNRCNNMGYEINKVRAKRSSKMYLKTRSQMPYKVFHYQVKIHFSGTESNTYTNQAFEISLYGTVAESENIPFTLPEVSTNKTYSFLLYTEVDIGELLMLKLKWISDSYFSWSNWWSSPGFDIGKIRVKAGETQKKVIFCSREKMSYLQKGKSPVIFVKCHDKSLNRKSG

B1: H4H1250P (antibody, IgG4, V domains shown)
VH: QVQLVESGGGVVQPGRSLRLSCAASGFTFSSYGMHWVRQAPGKGLEWVAVISNDGSNKYYVDSVKGRFTMGRDNSKNTLYLQMNSLRVEDTAVYYCAKGAGTLYYYYYGMDVWGQGTTVTVSS
VL: DIQMTQSPSTLSASVGNRVTITCRASQSISSWLAWYQQKPGKAPKFLIYKASSLESGVPSRFSGSGSGTEFTLTITSLQPDDFATYYCQQYNIYSWTFGQGTKVEIK
B2: mANGPTL3(17-455)-His (other)
chain: SRVDPDLSSFDSAPSEPKSRFAMLDDVKILANGLLQLGHGLKDFVHKTKGQINDIFQKLNIFDQSFYDLSLRTNEIKEEEKELRRTTSTLQVKNEEVKNMSVELNSKLESLLEEKTALQHKVRALEEQLTNLILSPAGAQEHPEVTSLKSFVEQQDNSIRELLQSVEEQYKQLSQQHMQIKEIEKQLRKTGIQEPSENSLSSKSRAPRTTPPLQLNETENTEQDDLPADCSAVYNRGEHTSGVYTIKPRNSQGFNVYCDTQSGSPWTLIQHRKDGSQDFNETWENYEKGFGRLDGEFWLGLEKIYAIVQQSNYILRLELQDWKDSKHYVEYSFHLGSHETNYTLHVAEIAGNIPGALPEHTDLMFSTWNHRAKGQLYCPESYSGGWWWNDICGENNLNGKYNKPRTKSRPERRRGIYWRPQSRKLYAIKSSKMMLQPTTHHHHHHHHHH
B3: H4H1279P (antibody, IgG4, V domains shown)
VH: QVQLVESGGGLVKPGGSLRLSCAASGFTFSDYYMSWIRQAPGKGLEWVSYIGSSGVNMYYADSVKGRFTISRDNAKNSLYLEMNSLRAEDTAVYYCARDSSQLGFDYWGQGTLVTVSS
VL: DIQMTQSPSSLSASVGDRVTITCRTSQNIINFLNWYQQKPGKAPKLLIYTTSTLQSGVPSRFSGSGSGTDFTLSINSLQPEDFATYFCQQTYSNPLTFGGGTKLEIKR
B4: H4H1292P (antibody, IgG4, V domains shown)
VH: B3 VH with G52S, V56S, N57T, M58I, E82Q
VL: B3 VL with T25A, N28S, N31S, T51A, T53S, S74T, N76S, F87Y, L104V
B5: hANGPTL4(26-148)-mFc (Fc fusion)
chain: GPVQSKSPRFASWDEMNVLAHGLLQLGQGLREHAERTRSQLSALERRLSACGSACQGTEGSTDLPLAPESRVDPEVLHSLQTQLKAQNSRIQQLFHKVAQQQRHLEKQHLRIQHLQSQFGLLDEPRGPTIKPCPPCKCPAPNLLGGPSVFIFPPKIKDVLMISLSPIVTCVVVDVSEDDPDVQISWFVNNVEVHTAQTQTHREDYNSTLRVVSALPIQHQDWMSGKEFKCKVNNKDLPAPIERTISKPKGSVRAPQVYVLPPPEEEMTKKQVTLTCMVTDFMPEDIYVEWTNNGKTELNYKNTEPVLDSDGSYFMYSKLRVEKKNWVERNSYSCSVVHEGLHNHHTTKSFSRTPGK

What was measured:
hANGPTL3(17-460)-His [1] = target: T1, hANGPTL3(17-460)-His; assay: Biacore cross-competition, 25C; first antibody at 25 µg/ml on captured antigen
Description: (§1) Cross competition experiments were performed at 25° C. on a Biacore essentially as described in Example 3 above. […] The results are shown in Table 8 with binding response for the first antibody (mAb1), followed by binding response of the second antibody (mAb2) on the ANGPTL3 surface pre-loaded with the first antibody. Numbers in bold indicate that the antibody pairs are able to bind to hANGPTL3 simultaneously. Numbers in italics indicate that that the antibody pairs are able to bind to hANGPTL3 simultaneously when added sequentially in one direction but not the other. Brackets indicate self-self competition.

hANGPTL3(17-460)-His [2] = target: T1, hANGPTL3(17-460)-His; assay: Biacore cross-competition; second antibody after pre-loading with competitor H4H1292P
Description: as §1

hANGPTL3(17-460)-His [3] = target: T1, hANGPTL3(17-460)-His; assay: Biacore cross-competition; second antibody after pre-loading with competitor H1M896N
Description: as §1

hANGPTL3(17-460)-His [4] = target: T1, hANGPTL3(17-460)-His; assay: Biacore cross-competition; second antibody after pre-loading with competitor H4H1279P
Description: as §1

mANGPTL3(17-455)-His = target: B2; assay: SPR Biacore, antigen captured, 37C, pH 7.4, HBS-EP
Description: (§2) All kinetic binding experiments were performed at 25° C. or 37° C. on a BIACORE™ T200 label-free molecular interaction instrument (GE Healthcare) using a CM5 sensor chip. Briefly, an antigen capture surface was generated by covalently coupling either an anti-mouse IgG-specific antibody (anti-mFc; GE Healthcare; catalog #BR-1008-38) or an anti-pentahistidine-specific antibody (Qiagen; catalog #34660) to the surface of a CM5 sensor chip using a standard amine coupling method.

hANGPTL3(17-460)-His [5] = target: T1, hANGPTL3(17-460)-His; assay: SPR Biacore, antigen captured, 37C, pH 7.4, HBS-EP
Description: as §2

hANGPTL3(17-460)-His [6] = target: T1, hANGPTL3(17-460)-His; assay: SPR Biacore, antigen captured, 25C, pH 7.4, HBS-EP
Description: as §2

hANGPTL3(17-169)-mFc = target: T2, hANGPTL3(17-169)-mFc; assay: SPR Biacore, antigen captured, 25C, pH 7.4, HBS-EP
Description: as §2

hANGPTL3(17-460)-His [7] = target: T1, hANGPTL3(17-460)-His; assay: Biacore cross-competition; second antibody after pre-loading with Negative Control
Description: as §1

bovine LPL = target: T3, bovine LPL; assay: cell-based or functional assay
hANGPTL3(17-460)-His [8] = target: T1, hANGPTL3(17-460)-His; assay: Biacore cross-competition; second antibody after pre-loading with competitor H4H1250P
Description: as §1

B1
mAb1 binding response (RU) (hANGPTL3(17-460)-His [1]): 210 RU
mAb2 binding response (RU) (hANGPTL3(17-460)-His [2]): 220 RU
mAb2 binding response (RU) (hANGPTL3(17-460)-His [3]): -4 RU
mAb2 binding response (RU) (hANGPTL3(17-460)-His [4]): 213 RU
Kd (mANGPTL3(17-455)-His): 0.486 nM
koff (mANGPTL3(17-455)-His): 0.00155 s⁻¹
kon (mANGPTL3(17-455)-His): 3.18e+06 M⁻¹ s⁻¹
t1/2 (mANGPTL3(17-455)-His): 7 min
Kd (hANGPTL3(17-460)-His [5]): 0.324 nM
koff (hANGPTL3(17-460)-His [5]): 0.00113 s⁻¹
kon (hANGPTL3(17-460)-His [5]): 3.5e+06 M⁻¹ s⁻¹
t1/2 (hANGPTL3(17-460)-His [5]): 10 min
Kd (hANGPTL3(17-460)-His [6]): 0.726 nM
koff (hANGPTL3(17-460)-His [6]): 0.000657 s⁻¹
kon (hANGPTL3(17-460)-His [6]): 904000 M⁻¹ s⁻¹
t1/2 (hANGPTL3(17-460)-His [6]): 18 min
Kd (hANGPTL3(17-169)-mFc): 0.519 nM
koff (hANGPTL3(17-169)-mFc): 0.000651 s⁻¹
kon (hANGPTL3(17-169)-mFc): 1.25e+06 M⁻¹ s⁻¹
t1/2 (hANGPTL3(17-169)-mFc): 0.3 h
mAb2 binding response (RU) (hANGPTL3(17-460)-His [7]): 187 RU

B2
EC50 (nM), inhibition of LPL activity (bovine LPL): 33 nM

B3
mAb1 binding response (RU) (hANGPTL3(17-460)-His [1]): 45 RU
mAb2 binding response (RU) (hANGPTL3(17-460)-His [2]): -3 RU
mAb2 binding response (RU) (hANGPTL3(17-460)-His [3]): 47 RU
mAb2 binding response (RU) (hANGPTL3(17-460)-His [8]): 9 RU
Kd (mANGPTL3(17-455)-His): 0.167 nM
koff (mANGPTL3(17-455)-His): 0.000359 s⁻¹
kon (mANGPTL3(17-455)-His): 2.15e+06 M⁻¹ s⁻¹
t1/2 (mANGPTL3(17-455)-His): 32 min
Kd (hANGPTL3(17-460)-His [5]): 0.381 nM
koff (hANGPTL3(17-460)-His [5]): 0.00181 s⁻¹
kon (hANGPTL3(17-460)-His [5]): 4.74e+06 M⁻¹ s⁻¹
t1/2 (hANGPTL3(17-460)-His [5]): 6 min
Kd (hANGPTL3(17-460)-His [6]): 0.394 nM
koff (hANGPTL3(17-460)-His [6]): 0.000114 s⁻¹
kon (hANGPTL3(17-460)-His [6]): 288000 M⁻¹ s⁻¹
t1/2 (hANGPTL3(17-460)-His [6]): 102 min
Kd (hANGPTL3(17-169)-mFc): 0.00841 nM
koff (hANGPTL3(17-169)-mFc): 5.53e-06 s⁻¹
kon (hANGPTL3(17-169)-mFc): 658000 M⁻¹ s⁻¹
t1/2 (hANGPTL3(17-169)-mFc): 34.8 h
mAb2 binding response (RU) (hANGPTL3(17-460)-His [7]): 47 RU

B4
mAb1 binding response (RU) (hANGPTL3(17-460)-His [1]): 48 RU
mAb2 binding response (RU) (hANGPTL3(17-460)-His [3]): 50 RU
mAb2 binding response (RU) (hANGPTL3(17-460)-His [8]): 8 RU
mAb2 binding response (RU) (hANGPTL3(17-460)-His [4]): -1 RU
Kd (mANGPTL3(17-455)-His): 0.38 nM
koff (mANGPTL3(17-455)-His): 0.00149 s⁻¹
kon (mANGPTL3(17-455)-His): 3.92e+06 M⁻¹ s⁻¹
t1/2 (mANGPTL3(17-455)-His): 8 min
Kd (hANGPTL3(17-460)-His [5]): 1.02 nM
koff (hANGPTL3(17-460)-His [5]): 0.00194 s⁻¹
kon (hANGPTL3(17-460)-His [5]): 1.89e+06 M⁻¹ s⁻¹
t1/2 (hANGPTL3(17-460)-His [5]): 6 min
Kd (hANGPTL3(17-460)-His [6]): 0.727 nM
koff (hANGPTL3(17-460)-His [6]): 0.000248 s⁻¹
kon (hANGPTL3(17-460)-His [6]): 341000 M⁻¹ s⁻¹
t1/2 (hANGPTL3(17-460)-His [6]): 47 min
Kd (hANGPTL3(17-169)-mFc): 0.257 nM
koff (hANGPTL3(17-169)-mFc): 0.000177 s⁻¹
kon (hANGPTL3(17-169)-mFc): 686000 M⁻¹ s⁻¹
t1/2 (hANGPTL3(17-169)-mFc): 1.08 h
mAb2 binding response (RU) (hANGPTL3(17-460)-His [7]): 48 RU

B5
EC50 (nM), inhibition of LPL activity (bovine LPL): 0.2 nM
